The values below come from patent US7966133B2, “Method of identifying a potential substrates of an O-methyltransferase” (The Salk Institute for Biological Studies, priority 2000, dated 2011).

“Also recorded” adds a separate entry of the source.

Series [1] has as its system nod genes. To be noted: among compounds released from alfalfa roots; via nodD1 and nodD2; cited from earlier work.
For series [2] the following is noted: aqueous solution; cited from earlier work.
Series [3] deals with IOMT. The series can be described thus: Qualitative enzyme activity assay, IOMT (14C-SAM, TLC autoradiography). To be noted: expressed in E. coli. Type of series: biochemical, Medicago sativa L.
Series [4] concerns ChOMT. As to the kind of experiment: Qualitative enzyme activity assay, ChOMT (14C-SAM, TLC autoradiography). Type of series: biochemical, Medicago sativa L. As to conditions: 20 μg protein, 500 μM 2′,4,4′-trihydroxychalcone, 500 μM 14C-SAM, 2 hr room temperature; FIG. 7A.

Regarding `COc1cc(O)ccc1C(=O)/C=C/c1ccc(O)cc1` [4,4′-dihydroxy-2′-methoxychalcone], the “transcriptional activation of nod genes” value in series [1] is “most efficient transcriptional activator”.
As to `O=C1c2ccc(O)cc2OC(O)C1c1ccc(O)cc1` (centres unmarked) [2,7,4′-trihydroxyisoflavanone], the aqueous stability result in series [2] was “lack of aqueous stability; also recorded: unstable in aqueous solution”.

B1: IOMT: Isoflavone O-methyltransferase (SEQ ID NO:4) from Medicago sativa L, recombinant wild type (protein, listed as Medicago sativa)
chain: MASSINGRKPSEIFKAQALLYKHIYAFIDSMSLKWAVGMNIPNIIHNHGKPISLSNLVSILQVPSSKIGNVRRLMRYLAHNGFFEIITKEEESYALTVASELLVRGSDLCLAPMVECVLDPTLSGSYHELKKWIYEEDLTLFGVTLGSGFWDFLDKNPEYNTSFNDAMASDSKLINLALRDCDFVFDGLESIVDVGGGTGTTAKIICETFPKLKCIVFDRPQVVENLSGSNNLTYVGGDMFTSIPNADAVLLKYILHNWTDKDCLRILKKCKEAVTNDGKRGKVTIIDMVINEKKDENQVTQIKLLMDVNMACLNGKERNEEEWKKLFIEAGFQHYKISPLTGFLSLIEIYP
With B1, the “specific activity of recombinant IOMT” value in series [3] was “comparable to published values”.

B2: H278L: ChOMT catalytic histidine mutant, His 278 to leucine (protein, listed as Medicago sativa)
chain: MGNSYITKEDNQISATSEQTEDSACLSAMVLTTNLVYPAVLNAAIDLNLFEIIAKATPPGAFMSPSEIASKLPASTQHSDLPNRLDRMLRLLASYSVLTSTTRTIEDGGAERVYGLSMVGKYLVPDESRGYLASFTTFLCYPALLQVWMNFKEAVVDEDIDLFKNVHGVTKYEFMGKDKKMNQIFNKSMVDVCATEMKRMLEIYTGFEGISTLVDVGGGSGRNLELIISKYPLIKGINFDLPQVIENAPPLSGIEHVGGDMFASVPQGDAMILKAVCLNWSDEKCIEFLSNCHKALSPNGKVIIVEFILPEEPNTSEESKLVSTLDNLMFITVGGRERTEKQYEKLSKLSGFSKFQVACRAFNSLGVMEFYK
As for B2, the “methyltransferase activity of ChOMT His 278 mutants” value (“methyltransferase activity” for short) in series [4] is listed as “completely eliminated methyltransferase activity”.

B3: H278A: ChOMT catalytic histidine mutant, His 278 to alanine (protein, listed as Medicago sativa)
chain: MGNSYITKEDNQISATSEQTEDSACLSAMVLTTNLVYPAVLNAAIDLNLFEIIAKATPPGAFMSPSEIASKLPASTQHSDLPNRLDRMLRLLASYSVLTSTTRTIEDGGAERVYGLSMVGKYLVPDESRGYLASFTTFLCYPALLQVWMNFKEAVVDEDIDLFKNVHGVTKYEFMGKDKKMNQIFNKSMVDVCATEMKRMLEIYTGFEGISTLVDVGGGSGRNLELIISKYPLIKGINFDLPQVIENAPPLSGIEHVGGDMFASVPQGDAMILKAVCANWSDEKCIEFLSNCHKALSPNGKVIIVEFILPEEPNTSEESKLVSTLDNLMFITVGGRERTEKQYEKLSKLSGFSKFQVACRAFNSLGVMEFYK
On to B3, for which the “methyltransferase activity” value in series [4] was “completely eliminated methyltransferase activity”.

B4: H278K: ChOMT catalytic histidine mutant, His 278 to lysine (protein, listed as Medicago sativa)
chain: MGNSYITKEDNQISATSEQTEDSACLSAMVLTTNLVYPAVLNAAIDLNLFEIIAKATPPGAFMSPSEIASKLPASTQHSDLPNRLDRMLRLLASYSVLTSTTRTIEDGGAERVYGLSMVGKYLVPDESRGYLASFTTFLCYPALLQVWMNFKEAVVDEDIDLFKNVHGVTKYEFMGKDKKMNQIFNKSMVDVCATEMKRMLEIYTGFEGISTLVDVGGGSGRNLELIISKYPLIKGINFDLPQVIENAPPLSGIEHVGGDMFASVPQGDAMILKAVCKNWSDEKCIEFLSNCHKALSPNGKVIIVEFILPEEPNTSEESKLVSTLDNLMFITVGGRERTEKQYEKLSKLSGFSKFQVACRAFNSLGVMEFYK
With B4, the “methyltransferase activity” value in series [4] was “completely eliminated methyltransferase activity”.

B5: H278N: ChOMT catalytic histidine mutant, His 278 to asparagine (protein, listed as Medicago sativa)
chain: MGNSYITKEDNQISATSEQTEDSACLSAMVLTTNLVYPAVLNAAIDLNLFEIIAKATPPGAFMSPSEIASKLPASTQHSDLPNRLDRMLRLLASYSVLTSTTRTIEDGGAERVYGLSMVGKYLVPDESRGYLASFTTFLCYPALLQVWMNFKEAVVDEDIDLFKNVHGVTKYEFMGKDKKMNQIFNKSMVDVCATEMKRMLEIYTGFEGISTLVDVGGGSGRNLELIISKYPLIKGINFDLPQVIENAPPLSGIEHVGGDMFASVPQGDAMILKAVCNNWSDEKCIEFLSNCHKALSPNGKVIIVEFILPEEPNTSEESKLVSTLDNLMFITVGGRERTEKQYEKLSKLSGFSKFQVACRAFNSLGVMEFYK
For the molecule B5, in series [4], the “methyltransferase activity” value was “completely eliminated methyltransferase activity”.

B6: H278Q: ChOMT catalytic histidine mutant, His 278 to glutamine (protein, listed as Medicago sativa)
chain: MGNSYITKEDNQISATSEQTEDSACLSAMVLTTNLVYPAVLNAAIDLNLFEIIAKATPPGAFMSPSEIASKLPASTQHSDLPNRLDRMLRLLASYSVLTSTTRTIEDGGAERVYGLSMVGKYLVPDESRGYLASFTTFLCYPALLQVWMNFKEAVVDEDIDLFKNVHGVTKYEFMGKDKKMNQIFNKSMVDVCATEMKRMLEIYTGFEGISTLVDVGGGSGRNLELIISKYPLIKGINFDLPQVIENAPPLSGIEHVGGDMFASVPQGDAMILKAVCQNWSDEKCIEFLSNCHKALSPNGKVIIVEFILPEEPNTSEESKLVSTLDNLMFITVGGRERTEKQYEKLSKLSGFSKFQVACRAFNSLGVMEFYK
Regarding B6, the “methyltransferase activity” value in series [4] was “completely eliminated methyltransferase activity”.
